# Test results reported in US8431531B2, “Methods for stimulating glucagon-like peptide-1(GLP-1) secretion and treatments comprising same” (Campina Nederland Holding B.V., priority 2005, dated 2013).
# Assays:
# [1] = plasma; degradation by DPP-IV; cited from earlier work
# [2] = test system: Bipro from Davisco Foods, USA (unhydrolysed, DH 0%)
# [3] = test system: Sodium caseinate from DMV International, NL (unhydrolysed, DH 0%)
# DPP-IV = target: T1, DPP-IV (Sus scrofa, UniProt P22411); assay: In vitro measurement of DPP-IV activity (Gly-Pro-p-nitroanilide substrate, absorption at 385 nm); type: biochemical; details: Tris buffer pH 8.0
# T1 construct: purchased Sigma D-7052
# T1 sequence (P22411 whole entry): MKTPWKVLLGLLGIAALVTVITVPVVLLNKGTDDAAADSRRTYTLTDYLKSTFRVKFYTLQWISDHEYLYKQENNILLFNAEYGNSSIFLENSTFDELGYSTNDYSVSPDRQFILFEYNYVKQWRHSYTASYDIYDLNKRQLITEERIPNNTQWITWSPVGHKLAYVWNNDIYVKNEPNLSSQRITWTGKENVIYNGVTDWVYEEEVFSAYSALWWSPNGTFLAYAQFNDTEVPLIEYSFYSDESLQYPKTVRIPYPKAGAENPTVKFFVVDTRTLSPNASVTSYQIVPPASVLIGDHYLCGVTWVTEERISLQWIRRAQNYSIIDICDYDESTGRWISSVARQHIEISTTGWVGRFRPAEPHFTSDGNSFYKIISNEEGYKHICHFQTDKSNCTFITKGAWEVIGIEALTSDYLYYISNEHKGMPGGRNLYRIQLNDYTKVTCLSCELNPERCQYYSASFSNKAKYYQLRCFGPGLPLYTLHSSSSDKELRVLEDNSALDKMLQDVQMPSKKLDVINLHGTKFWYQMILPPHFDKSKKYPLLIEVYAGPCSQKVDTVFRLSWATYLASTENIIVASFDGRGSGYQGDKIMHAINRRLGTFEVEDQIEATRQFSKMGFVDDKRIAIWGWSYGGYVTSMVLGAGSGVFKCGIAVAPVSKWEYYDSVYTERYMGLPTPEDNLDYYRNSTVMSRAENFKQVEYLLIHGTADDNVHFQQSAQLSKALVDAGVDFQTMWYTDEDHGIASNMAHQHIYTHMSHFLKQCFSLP
# Experimental: DPP-IV activity can be determined by measuring the increase in absorption at 385 nm using Gly-Pro-p-nitroanilide (Sigma G-0513) as DPP-IV substrate. A decrease in DPP-IV activity is a measure for the inhibition.
# 13.152 mg Gly-Pro-p-nitroanilide (substrate; Sigma G-0513) was dissolved in 1 ml Tris buffer, pH 8.0. DPP-IV (Sigma D-7052) was diluted with Tris buffer, pH 8.0 to 1.1 Unit/ml. The substrate was diluted 50-fold with Tris buffer, pH 8.0. The samples were prepared by diluting a protein hydrolysate to a 1 wt. % protein solution in Tris buffer, pH 8.0. The samples were then serially diluted to obtain a range of sample concentrations. 50 μl of the different serially diluted samples and 50 μl of the diluted substrate were then pipetted in wells of a microtiter plate with 96 wells. Subsequently, 100 μl of the diluted enzyme was pipetted in each well of a plate with 96 wells. Then the increase in absorption at 385 nm was determined and DPP-IV activities at different concentrations of a variety of protein hydrolysates were determined, from which the IC50 (i.e. the concentration of inhibitor (particular protein hydrolysate) that inhibits 50% of the DPP-IV activity) could be derived. […] The degree of hydrolysis was determined using the o-phtaldialdehyde method, which is well known in the art.
substance,measurement,setting,value
"GLP-1: 30 amino acid incretin peptide, sequence HAEGTFTSDVSSYLEGQAAKEFIAWLVKGR (SEQ ID NO: 1)",half-life,[1],1 to 2 min
dipeptidyl peptidase IV (DPP-IV),"DPP-IV activity (Gly-Pro-p-nitroanilide substrate, absorption at 385 nm)",[2],unhydrolysed protein did not inhibit the enzyme
same,"DPP-IV activity (Gly-Pro-p-nitroanilide substrate, absorption at 385 nm)",[3],unhydrolysed protein did not inhibit the enzyme
Sodium caseinate,"DPP-IV inhibition by unhydrolysed protein (control, DH 0%)",DPP-IV,did not inhibit the enzyme
